Data from US20180230200A1 (CITY OF HOPE, published 2018).

Tests used:
[1] = target: T1, gH/gL/UL128/UL130/UL131A pentamer complex expressed from MVA-PC in BHK-21 cells (human cytomegalovirus, UniProt P12824 24-743; P16832 31-278; P16837 28-171; P16772 1-214; F5HET4 19-129); assay: FC competition, MVA-PC BHK-21; unlabelled row Ab; competitor: biotinylated 54E11
T1 construct: whole, on cells

[2] = target: T1, gH/gL/UL128/UL130/UL131A pentamer …; assay: FC, biotinylated NAb titrated on MVA-PC-infected BHK-21 (cell surface PC)
[3] = target: T1, gH/gL/UL128/UL130/UL131A pentamer …; assay: FC competition, MVA-PC BHK-21; unlabelled row Ab; competitor: biotinylated 12E2
[4] = target: T1, gH/gL/UL128/UL130/UL131A pentamer …; assay: FC competition, MVA-PC BHK-21; unlabelled row Ab; competitor: biotinylated 1B2
[5] = target: T1, gH/gL/UL128/UL130/UL131A pentamer …; assay: FC competition, MVA-PC BHK-21; unlabelled row Ab; competitor: biotinylated AP86; note: test concentration or dose not given here

B1: 18F10 (antibody, V domains shown)
VH: QVTLKESGPGILQPSQTLSLTCSFSGFSLSTYGIGIGWIRQPSGKGLEWLAHIWWNDNKNYNTALKSRLTISKDPSNNQVFLKIASVDTADTATYFCARTGYFDVWGAGTTVTVSS
VL: DVVLTQTPLSLPVSLGDQVSISCSSSQSLVHSNGNTYIHWYLQKPGQSPKLLIYTVSNRFSGVPDRFSGSGSGTDFTLKISRVEAEDLGLYFCSQSTHVPYTFGGGTKLEIK
notes: also called NAb 18F10
[1]
  Binding Inhibition (%): 0%
[2]
  EC50: 6.5 nM
[3]
  Binding Inhibition (%): 0%
[4]
  Binding Inhibition (%): 0%
[5]
  Binding Inhibition (%): 100%
